Experimental findings from patent publication US20210130436A1 are described below.

Where “and” joins values, the source holds several entries; their conditions need not be identical. Equal values may be shown once.

The target of assay [1] is human CTLA-4 (human) (UniProt P16410). Kind of assay: flow cytometry, CHO cells stably expressing CTLA4.
The next assay concerns the target T1, CD96 (UniProt P40200).
T1 sequence (looked up): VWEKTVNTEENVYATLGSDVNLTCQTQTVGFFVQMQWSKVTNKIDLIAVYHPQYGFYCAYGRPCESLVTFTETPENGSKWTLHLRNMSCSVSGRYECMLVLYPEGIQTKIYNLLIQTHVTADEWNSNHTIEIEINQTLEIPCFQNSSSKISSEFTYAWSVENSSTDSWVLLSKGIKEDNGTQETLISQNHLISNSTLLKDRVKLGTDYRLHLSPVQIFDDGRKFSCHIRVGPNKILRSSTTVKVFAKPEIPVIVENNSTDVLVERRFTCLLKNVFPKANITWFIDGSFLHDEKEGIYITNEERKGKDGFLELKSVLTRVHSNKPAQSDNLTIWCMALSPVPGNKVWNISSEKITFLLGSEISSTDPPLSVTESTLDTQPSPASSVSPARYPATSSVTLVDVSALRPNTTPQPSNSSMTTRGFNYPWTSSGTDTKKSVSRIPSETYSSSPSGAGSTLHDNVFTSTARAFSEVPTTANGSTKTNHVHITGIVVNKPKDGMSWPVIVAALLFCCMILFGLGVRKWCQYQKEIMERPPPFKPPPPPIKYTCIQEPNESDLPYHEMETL
Kind of assay: flow cytometry on cells expressing the target, 20 nM Fc fusion.

A further assay has as its target CD226 (UniProt Q15762). Kind of assay: flow cytometry, protein at 25 nM on cells expressing CD226.
The target of assay [2] is CD112R (UniProt Q6DKI7). Kind of assay: flow cytometry, protein at 25 nM on cells expressing CD112R.
Target sequence in this assay (Q6DKI7 41-326 limits assumed, form in doubt): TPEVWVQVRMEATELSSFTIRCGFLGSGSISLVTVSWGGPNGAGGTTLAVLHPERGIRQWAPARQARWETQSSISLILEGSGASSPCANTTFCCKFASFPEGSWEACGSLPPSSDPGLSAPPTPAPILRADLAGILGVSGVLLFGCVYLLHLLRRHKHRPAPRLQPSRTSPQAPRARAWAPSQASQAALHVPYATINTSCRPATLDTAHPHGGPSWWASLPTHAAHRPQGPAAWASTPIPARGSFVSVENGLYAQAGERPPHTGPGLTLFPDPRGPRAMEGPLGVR
For another assay, the target named is CD28 (human) (UniProt P10747). Kind of assay: flow cytometry, Jurkat/IL2 reporter cells (endogenous CD28), 33.3 nM, PE anti-human Fc.
Assay [3] deals with PD-L1 expressed on CHO/OKT3/PD-L1 artificial antigen presenting cells (human) (UniProt Q9NZQ7). Kind of assay: cell-based or functional assay.
Assay [4] deals with PD-1 expressed on cells (Homo sapiens (Human)) (UniProt Q15116). Kind of assay: flow cytometry; 20 nM protein on cells expressing PD-1.
Assay [5] concerns the target CD80 expressed on cells (human) (UniProt P33681). Kind of assay: flow cytometry; 20 nM protein on cells expressing CD80.
For assay [6], the target named is human CD28, full-length, expressed on transfected HEK293 (Expi293F) cells (human) (UniProt P10747). Kind of assay: flow cytometry, Fc control on HEK293 cells transfected with full-length human CD28.
Assay [7] concerns the target human PD-L1, full-length, expressed on transfected HEK293 (Expi293F) cells (human) (UniProt Q9NZQ7). Kind of assay: flow cytometry, Fc control on HEK293 cells transfected with full-length human PD-L1.
Assay [8] has as its target human CTLA4, full-length, expressed on transfected HEK293 (Expi293F) cells (human) (UniProt P16410). Kind of assay: flow cytometry, Fc control on HEK293 cells transfected with full-length human CTLA4.
Assay [9] has as its target PD-1 (Homo sapiens (Human)) (UniProt Q15116). Kind of assay: flow cytometry on Jurkat/PD-1 cells, 50 nM.
Assay [10] has as its target PD-L1 (human) (UniProt Q9NZQ7). Kind of assay: cell-based or functional assay.
The target in assay [11] is PD-L1 (human) (UniProt Q9NZQ7). Kind of assay: flow cytometry, CHO cells stably expressing PD-L1.
The target in assay [12] is PD-L1 (human) (UniProt Q9NZQ7). Kind of assay: flow cytometry, CHO cells stably expressing huPD-L1, 33.3 nM, PE anti-human Fc.
Assay [13] addresses T2, TIGIT (UniProt Q495A1).
T2 sequence (looked up): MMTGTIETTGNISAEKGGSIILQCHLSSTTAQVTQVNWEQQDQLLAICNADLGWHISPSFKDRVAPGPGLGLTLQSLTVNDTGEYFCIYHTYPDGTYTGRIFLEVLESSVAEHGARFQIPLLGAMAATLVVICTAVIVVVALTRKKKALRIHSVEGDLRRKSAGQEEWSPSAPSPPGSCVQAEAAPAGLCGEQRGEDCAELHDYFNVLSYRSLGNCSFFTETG
Kind of assay: flow cytometry on cells expressing TIGIT, Fc fusion at 100 nM.

Assay [14] addresses T2, TIGIT. Kind of assay: flow cytometry, MFI ratio to wildtype CD155 ECD-Fc, TIGIT cells.
Assay [15] addresses human CTLA-4 (human) (UniProt P16410). Kind of assay: flow cytometry, CHO cells stably expressing huCTLA4, 33.3 nM, PE anti-human Fc.
In assay [16] the target is human CD28, endogenous on Jurkat/IL2 reporter cells (human) (UniProt P10747). Kind of assay: flow cytometry, Jurkat/IL2 reporter cells (endogenous CD28), PE anti-human Fc.
For assay [17], the target named is CD28, endogenously expressed on Jurkat/IL2 reporter cells (human) (UniProt P10747). Kind of assay: flow cytometry on Jurkat/IL2 reporter cells (endogenous CD28); PE anti-human Fc.
The target is the same in assay [18]. Kind of assay: flow cytometry, Jurkat/IL2 reporter cells (endogenous CD28), PE anti-human Fc.
Assay [19] has the same target. Kind of assay: flow cytometry, Jurkat/IL2 reporter cells (endogenous CD28).
Assay [20] concerns the target human CTLA4 (huCTLA4), full-length, stably expressed on CHO cells (human) (UniProt P16410). Kind of assay: flow cytometry, CHO cells expressing huCTLA4.
Assay [21] concerns the target human CTLA4, full-length, expressed on transfected HEK293 (Expi293F) cells (human) (UniProt P16410). Kind of assay: flow cytometry, Fc fusion on HEK293 cells transfected with full-length human CTLA4.
For assay [22], the target named is human CTLA4 (full-length, expressed on CHO cells) (human) (UniProt P16410). Kind of assay: flow cytometry, CHO cells expressing huCTLA4, PE anti-human Fc.
In assay [23] the target is human CTLA-4, full-length, on transduced CHO cells (human) (UniProt P16410). The assay is described as above.
The target of assay [24] is human PD-L1 on CHO cells (human) (UniProt Q9NZQ7). Kind of assay: cell-based or functional assay.
Assay [25] concerns the target CD112R (UniProt Q6DKI7). Kind of assay: flow cytometry on CD112R-expressing cells.
Target sequence in this assay (Q6DKI7 41-326 limits assumed): as the sequence (Q6DKI7 41-326 limits assumed, form in doubt) above
Assay [26] has as its target PD-1 expressed on cells (Homo sapiens (Human)) (UniProt Q15116). Kind of assay: flow cytometry; 20 nM Fc fusion on cells expressing PD-1.
The target of assay [27] is PD-L1 (human) (UniProt Q9NZQ7). Kind of assay: flow cytometry on CHO cells stably expressing PD-L1.

Sequence of PD-1 (Homo sapiens (Human)) (Q15116 21-288): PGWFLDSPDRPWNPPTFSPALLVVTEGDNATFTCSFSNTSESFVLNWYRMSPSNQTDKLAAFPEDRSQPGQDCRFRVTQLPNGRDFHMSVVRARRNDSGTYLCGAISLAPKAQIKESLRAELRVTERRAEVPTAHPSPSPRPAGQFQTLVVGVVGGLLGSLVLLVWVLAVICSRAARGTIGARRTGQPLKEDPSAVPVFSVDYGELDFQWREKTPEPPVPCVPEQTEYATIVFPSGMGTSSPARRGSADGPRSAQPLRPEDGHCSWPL
Sequence of PD-1 expressed on cells (Homo sapiens (Human)) (Q15116 21-288): as above
Sequence of human CTLA4, full-length, expressed on transfected HEK293 (Expi293F) cells (human) (P16410 36-223): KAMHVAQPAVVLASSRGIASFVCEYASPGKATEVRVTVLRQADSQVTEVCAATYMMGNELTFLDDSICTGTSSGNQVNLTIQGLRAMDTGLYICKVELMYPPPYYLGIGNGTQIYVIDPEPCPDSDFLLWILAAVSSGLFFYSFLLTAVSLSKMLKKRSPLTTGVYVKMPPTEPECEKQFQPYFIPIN
Sequence of human CTLA4 (full-length, expressed on CHO cells) (human) (P16410 36-223): as above
Sequence of human CTLA-4 (human) (P16410 36-223): as above
Sequence of human CTLA-4, full-length, on transduced CHO cells (human) (P16410 36-223): as above
Sequence of human CTLA4 (huCTLA4), full-length, stably expressed on CHO cells (human) (P16410 36-223): as above
Sequence of CD226 (Q15762 19-336): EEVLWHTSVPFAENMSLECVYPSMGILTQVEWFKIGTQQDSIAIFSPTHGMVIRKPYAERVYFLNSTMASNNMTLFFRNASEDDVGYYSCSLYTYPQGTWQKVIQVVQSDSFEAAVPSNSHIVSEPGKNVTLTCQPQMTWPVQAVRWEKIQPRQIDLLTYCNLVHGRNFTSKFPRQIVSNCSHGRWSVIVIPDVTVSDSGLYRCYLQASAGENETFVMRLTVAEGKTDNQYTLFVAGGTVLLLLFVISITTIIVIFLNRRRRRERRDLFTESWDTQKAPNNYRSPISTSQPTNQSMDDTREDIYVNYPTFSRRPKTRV

“CD80 IgV-Fc T13R/Q33R/E35D/M38I/M47L/V68M (from UniProt P33681 35-141) (Fc fusion)” gave an MFI at 33.3 nM in the assay with human CTLA-4 (human) [1] of 193 MFI.
As for “CD112 A112V IgV-Fc (from UniProt Q92692 32-158) (Fc fusion)”, the MFI at 20 nM with CD96 was 1210 MFI and 1180 MFI.
On to “CD112-IgV (from UniProt Q92692 32-158) (Fc fusion)”, for which the figures for the MFI at 25 nM with CD226 and with CD112R [2] were 824 MFI and 17800 MFI, respectively.
In turn, “E35D/D46E/M47L/V68M/L85Q/F92L CD80 IgV-Fc (from UniProt P33681 35-141) (Fc fusion)” displayed an MFI at 33.3 nM in the assay with CD28 (human) of 15 MFI.
For “Fc1.1 Control (from UniProt P0DOX5 218-448)”, the Relative Luciferase Units (RLU), Jurkat/IL2 + CHO/OKT3/PD-L1 reporter assay, CD80 Conc 5.0 nM in assay [3] amounted to 97 RLU.
As to Fc Control, the MFI at 20 nM in assay [4] is 59 MFI; in assay [5], 132 MFI.
For the substance Fc only, the MFI at 66.6 nM in assay [6] came to 2590 MFI; in assay [8], 5960 MFI. In addition, the MFI at 22.2 nM in assay [7] was determined as 4740 MFI.
Regarding “PD-L1 A33D/S75P IgV-Fc (first entry) (from UniProt Q9NZQ7 19-132) (Fc fusion)”, in assay [9], the Fold increase over wildtype PD-L1 IgV-Fc is 0.1 fold and the MFI at 50 nM was determined as 306.
Take “WT CD80 ECD-Fc (from UniProt P33681 35-242) (Fc fusion)”: the Jurkat/IL2 + CHO/OKT3/PD-L1 reporter assay, RLU at CD80 Conc 5.0 nM with PD-L1 (human) [10] stood at 521 RLU. In addition, the MFI at 33.3 nM in the assay with PD-L1 (human) [11] was 52 MFI; with PD-L1 (human) [12], 68 MFI.
As to “Wildtype (CD155 entry without mutations among the variant rows of Table 20B) (from UniProt P15151 21-142) (Fc fusion)”, in the assay with TIGIT [13], the MFI at 100 nM is 1960 MFI and 2180 MFI. Besides, the Fold ↑ to WT ECD in the assay with TIGIT [14] is 0 fold.
deltaE10-A98 CD80 IgV-Fc (Fc fusion): the MFI at 33.3 nM in the assay with CD28 (human) was found to be 15 MFI; in the assay with human CTLA-4 (human) [15], 125 MFI; with PD-L1 (human) [12] it was 45 MFI.
Consider “variant CD80 IgV-Fc E35D/D46E/M47V/N63D/L85Q (from UniProt P33681 35-141) (Fc fusion)”, for which the MFI at 33.3 nM in assay [16] is 1330 MFI.
The substance “variant CD80 IgV-Fc E35D/K37E/M47V/N48D/L85Q/D90N (from UniProt P33681 35-141) (Fc fusion)” came in with an MFI at 33.3 nM in [16] of 1590 MFI.
For “variant CD80 IgV-Fc E35D/M42V/M47V/E52D/L85Q (from UniProt P33681 35-141) (Fc fusion)”, the MFI at 33.3 nM in [17] turned out to be 1290 MFI.
Take “variant CD80 IgV-Fc E35D/M47L/A71G/L85Q (from UniProt P33681 35-141) (Fc fusion)”: the MFI at 33.3 nM in assay [16] amounted to 1440 MFI.
Substance “variant CD80 IgV-Fc E35D/Y53H/A71G/D90G/L97R (from UniProt P33681 35-141) (Fc fusion)” registered an MFI at 33.3 nM in assay [17] of 1550 MFI.
With “variant CD80 IgV-Fc H18L/V22A/E35D/M47L/N48T/L85Q (from UniProt P33681 35-141) (Fc fusion)”, in [18], the MFI at 33.3 nM is 434 MFI.
In the case of “variant CD80 IgV-Fc H18Y/E35D/M38I/M47L/V68M/L85M (from UniProt P33681 35-141) (Fc fusion)”, the MFI at 33.3 nM was determined as 16.7 MFI in [19] and 139 MFI in [20].
In assay [21], “variant CD80 IgV-Fc K36R/G78A (from UniProt P33681 35-141) (Fc fusion)” registered an MFI at 66.6 nM of 11900 MFI.
The substance “variant CD80 IgV-Fc Q33L/E35D/M43I/Y53F/T62S/L85Q (from UniProt P33681 35-141) (Fc fusion)” returned an MFI at 33.3 nM in [17] of 1024 MFI.
Consider “variant CD80 IgV-Fc Q33L/E35D/M47I (from UniProt P33681 35-141) (Fc fusion)”, for which the MFI at 33.3 nM in assay [22] is 15900 MFI.
“variant CD80 IgV-Fc Q33L/E35D/T41S/M43I (from UniProt P33681 35-141) (Fc fusion)”: in [18], the MFI at 33.3 nM stood at 433 MFI.
Regarding “variant CD80 IgV-Fc Q33L/E35D/T41S/M47V (from UniProt P33681 35-141) (Fc fusion)”, in [22], the MFI at 33.3 nM was determined as 14500 MFI.
In [23], “variant CD80 IgV-Fc R29H/E35D/M43V/M47I/I49V (from UniProt P33681 35-141) (Fc fusion)” showed an MFI at 33.3 nM of 4690 MFI.
Regarding “variant CD80 IgV-Fc deltaE10-A98 (Fc fusion)”, in [24], the Fold Increase over WT CD80-IgV-Fc is 0.3 fold and the Jurkat/IL2 + CHO/OKT3/PD-L1 Reporter Assay: Relative Luciferase Units (RLU), CD80-Fc Conc 5.0 nM came out at 137 RLU.
In the assay with CD112R [25], “variant CD112 IgV-Fc R12W/A46T/K66M/Q79R/N106I/T113A/S118F (from UniProt Q92692 32-158) (Fc fusion)” registered an MFI at 100 nM of 1660 MFI.
“variant PD-L1 G15A/I36T/V129D/R195G Fc fusion (from UniProt Q9NZQ7 19-238)”: the MFI at 20 nM in assay [26] was found to be 125 MFI.
Regarding “wild-type CD80 ECD-Fc (inert), Example 15 (from UniProt P33681 35-242) (Fc fusion)”, the RLU, Jurkat/IL2 + CHO/OKT3/PD-L1 Reporter Assay, CD80 Conc 5.0 nM with PD-L1 (human) [10] is 159 RLU. Moreover, the MFI at 33.3 nM in the assay with PD-L1 (human) [27] was found to be 161 MFI.
